Experimental findings from paper PMC11983104 (Nucleic Acids Research, 2025) are described below.

The target in the experiment is GST-NLE1-Ubl WT (human, UniProt Q9NVX2 11-104). Kind of experiment: ITC.
Sequence of GST-NLE1-Ubl WT (Q9NVX2 11-104): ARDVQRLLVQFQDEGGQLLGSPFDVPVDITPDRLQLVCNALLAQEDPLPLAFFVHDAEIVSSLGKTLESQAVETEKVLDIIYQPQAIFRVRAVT

B1: MDN1-MIDAS-(His)6 (domain or fragment)
chain: ELERQLEMWQPRESGNPEEEKVAAEMWQSYLILTAPLSQRLCEELRLILEGSGKPSKRQYQICLAIDDSSSMVDNHTKQLAFESLAVIGNALTLLEVGQIAVCSFGESVKLLHPFHEQFSDYSGSQILRLCKFQQKKTKIAQFLESVANMFAAAQQLSQNISSETAQLLLVVSDGRGLFLEGKERVLAAVQAARNANIFVIFVVLDNPSSRDSILDIKVPIFKGPGEMPEIRSYMEEFPFPYYIILRDVNALPETLSDALRQWFELVTASDHP
One may read the Kd as a measure of binding affinity in units of concentration. For B1, the Kd came out at 5.5 nM. This counts as single-digit nanomolar.
